Data taken from the Human Domainome abundance scans (Beltran et al. 2025).
± gives the uncertainty stated by the source.

B1: DnaJ homolog subfamily C member 5, residues 16 to 77; numbered along this chain, Q9H3Z4 (parent)
chain: LYHVLGLDKNATSDDIKKSYRKLALKYHPDKNPDNPEAADKFKEINNAHAILTDATKRNIYD

Variants of: B1
Test: abundance fitness (aPCA) (normalised: wild type 0, dead -1); higher = more abundant; growth selection in yeast, the domain comes from the species named
Details: Homo sapiens
With FYHVLGLDKNATSDDIKKSYRKLALKYHPDKNPDNPEAADKFKEINNAHAILTDATKRNIYD [L1F] the abundance fitness was 0.197 ± 0.16. GYHVLGLDKNATSDDIKKSYRKLALKYHPDKNPDNPEAADKFKEINNAHAILTDATKRNIYD [L1G] showed an abundance fitness of -0.539 ± 0.11. Variant IYHVLGLDKNATSDDIKKSYRKLALKYHPDKNPDNPEAADKFKEINNAHAILTDATKRNIYD [L1I] has an abundance fitness of -0.084 ± 0.21. KYHVLGLDKNATSDDIKKSYRKLALKYHPDKNPDNPEAADKFKEINNAHAILTDATKRNIYD [L1K] gave an abundance fitness of -0.269 ± 0.19. With MYHVLGLDKNATSDDIKKSYRKLALKYHPDKNPDNPEAADKFKEINNAHAILTDATKRNIYD [L1M] the abundance fitness was 0.022 ± 0.15. For NYHVLGLDKNATSDDIKKSYRKLALKYHPDKNPDNPEAADKFKEINNAHAILTDATKRNIYD [L1N], the abundance fitness was 0.262 ± 0.17. In the case of RYHVLGLDKNATSDDIKKSYRKLALKYHPDKNPDNPEAADKFKEINNAHAILTDATKRNIYD [L1R], the abundance fitness is reported as -0.741 ± 0.2. SYHVLGLDKNATSDDIKKSYRKLALKYHPDKNPDNPEAADKFKEINNAHAILTDATKRNIYD [L1S] gave an abundance fitness of -0.198 ± 0.11. TYHVLGLDKNATSDDIKKSYRKLALKYHPDKNPDNPEAADKFKEINNAHAILTDATKRNIYD [L1T] showed an abundance fitness of -0.542 ± 0.22. WYHVLGLDKNATSDDIKKSYRKLALKYHPDKNPDNPEAADKFKEINNAHAILTDATKRNIYD [L1W] showed an abundance fitness of -0.352 ± 0.099. With LAHVLGLDKNATSDDIKKSYRKLALKYHPDKNPDNPEAADKFKEINNAHAILTDATKRNIYD [Y2A] the abundance fitness was -0.496 ± 0.091. With LCHVLGLDKNATSDDIKKSYRKLALKYHPDKNPDNPEAADKFKEINNAHAILTDATKRNIYD [Y2C] the abundance fitness was -0.686 ± 0.11. LDHVLGLDKNATSDDIKKSYRKLALKYHPDKNPDNPEAADKFKEINNAHAILTDATKRNIYD [Y2D] showed an abundance fitness of -0.18 ± 0.17. LEHVLGLDKNATSDDIKKSYRKLALKYHPDKNPDNPEAADKFKEINNAHAILTDATKRNIYD [Y2E] showed an abundance fitness of -0.098 ± 0.1. In the case of LFHVLGLDKNATSDDIKKSYRKLALKYHPDKNPDNPEAADKFKEINNAHAILTDATKRNIYD [Y2F], the abundance fitness is reported as -0.394 ± 0.14. LGHVLGLDKNATSDDIKKSYRKLALKYHPDKNPDNPEAADKFKEINNAHAILTDATKRNIYD [Y2G] gave an abundance fitness of -0.28 ± 0.11. LHHVLGLDKNATSDDIKKSYRKLALKYHPDKNPDNPEAADKFKEINNAHAILTDATKRNIYD [Y2H] gave an abundance fitness of -0.492 ± 0.12. With LIHVLGLDKNATSDDIKKSYRKLALKYHPDKNPDNPEAADKFKEINNAHAILTDATKRNIYD [Y2I] the abundance fitness was -0.809 ± 0.19. LKHVLGLDKNATSDDIKKSYRKLALKYHPDKNPDNPEAADKFKEINNAHAILTDATKRNIYD [Y2K] gave an abundance fitness of -0.692 ± 0.13. With LLHVLGLDKNATSDDIKKSYRKLALKYHPDKNPDNPEAADKFKEINNAHAILTDATKRNIYD [Y2L] the abundance fitness was -0.653 ± 0.062. Work on LMHVLGLDKNATSDDIKKSYRKLALKYHPDKNPDNPEAADKFKEINNAHAILTDATKRNIYD [Y2M] yielded an abundance fitness of -0.422 ± 0.12. LNHVLGLDKNATSDDIKKSYRKLALKYHPDKNPDNPEAADKFKEINNAHAILTDATKRNIYD [Y2N] gave an abundance fitness of -0.011 ± 0.17. LQHVLGLDKNATSDDIKKSYRKLALKYHPDKNPDNPEAADKFKEINNAHAILTDATKRNIYD [Y2Q] gave an abundance fitness of -0.358 ± 0.15. LRHVLGLDKNATSDDIKKSYRKLALKYHPDKNPDNPEAADKFKEINNAHAILTDATKRNIYD [Y2R] gave an abundance fitness of -0.922 ± 0.12. In the case of LSHVLGLDKNATSDDIKKSYRKLALKYHPDKNPDNPEAADKFKEINNAHAILTDATKRNIYD [Y2S], the abundance fitness is reported as -0.516 ± 0.085. With LTHVLGLDKNATSDDIKKSYRKLALKYHPDKNPDNPEAADKFKEINNAHAILTDATKRNIYD [Y2T] the abundance fitness was -0.357 ± 0.27. Work on LVHVLGLDKNATSDDIKKSYRKLALKYHPDKNPDNPEAADKFKEINNAHAILTDATKRNIYD [Y2V] yielded an abundance fitness of -0.873 ± 0.13. Work on LWHVLGLDKNATSDDIKKSYRKLALKYHPDKNPDNPEAADKFKEINNAHAILTDATKRNIYD [Y2W] yielded an abundance fitness of -0.534 ± 0.11. With LYAVLGLDKNATSDDIKKSYRKLALKYHPDKNPDNPEAADKFKEINNAHAILTDATKRNIYD [H3A] the abundance fitness was -0.14 ± 0.096. LYCVLGLDKNATSDDIKKSYRKLALKYHPDKNPDNPEAADKFKEINNAHAILTDATKRNIYD [H3C] showed an abundance fitness of -0.148 ± 0.22. LYDVLGLDKNATSDDIKKSYRKLALKYHPDKNPDNPEAADKFKEINNAHAILTDATKRNIYD [H3D] gave an abundance fitness of -0.528 ± 0.24. LYEVLGLDKNATSDDIKKSYRKLALKYHPDKNPDNPEAADKFKEINNAHAILTDATKRNIYD [H3E] showed an abundance fitness of -0.114 ± 0.13. In the case of LYFVLGLDKNATSDDIKKSYRKLALKYHPDKNPDNPEAADKFKEINNAHAILTDATKRNIYD [H3F], the abundance fitness is reported as -0.216 ± 0.22. LYGVLGLDKNATSDDIKKSYRKLALKYHPDKNPDNPEAADKFKEINNAHAILTDATKRNIYD [H3G] gave an abundance fitness of -0.157 ± 0.089. In the case of LYIVLGLDKNATSDDIKKSYRKLALKYHPDKNPDNPEAADKFKEINNAHAILTDATKRNIYD [H3I], the abundance fitness is reported as -0.423 ± 0.13. Work on LYKVLGLDKNATSDDIKKSYRKLALKYHPDKNPDNPEAADKFKEINNAHAILTDATKRNIYD [H3K] yielded an abundance fitness of -0.133 ± 0.17. Work on LYLVLGLDKNATSDDIKKSYRKLALKYHPDKNPDNPEAADKFKEINNAHAILTDATKRNIYD [H3L] yielded an abundance fitness of -0.364 ± 0.074. With LYMVLGLDKNATSDDIKKSYRKLALKYHPDKNPDNPEAADKFKEINNAHAILTDATKRNIYD [H3M] the abundance fitness was -0.153 ± 0.1. Work on LYNVLGLDKNATSDDIKKSYRKLALKYHPDKNPDNPEAADKFKEINNAHAILTDATKRNIYD [H3N] yielded an abundance fitness of -0.27 ± 0.16. With LYPVLGLDKNATSDDIKKSYRKLALKYHPDKNPDNPEAADKFKEINNAHAILTDATKRNIYD [H3P] the abundance fitness was -0.602 ± 0.093. With LYQVLGLDKNATSDDIKKSYRKLALKYHPDKNPDNPEAADKFKEINNAHAILTDATKRNIYD [H3Q] the abundance fitness was -0.116 ± 0.098. For LYRVLGLDKNATSDDIKKSYRKLALKYHPDKNPDNPEAADKFKEINNAHAILTDATKRNIYD [H3R], the abundance fitness was -0.185 ± 0.082.
